Results on one molecule are retold here after article PMC3906830 (The Febs Journal, 2013).

The target of the assay is T1, mature myostatin (human, UniProt O14793 267-375).
T1 sequence (looked up): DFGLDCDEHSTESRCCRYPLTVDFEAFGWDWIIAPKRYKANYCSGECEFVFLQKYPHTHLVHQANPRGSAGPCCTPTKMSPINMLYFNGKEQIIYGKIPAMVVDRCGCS
Nature of the assay: SPR.

B1: N-terminal region of myostatin prodomain (PRO43-115) (domain or fragment, human, UniProt O14793 43-115, looked up)
chain: TWRQNTKSSRIEAIKIQILSKLRLETAPNISKDVIRQLLPKAPPLRELIDQYDVQRDDSSDGSLEDDDYHATT
One may read the Kd as the free concentration of one partner at which half of the binding sites on the other are occupied at equilibrium, for simple one-to-one binding. Low values mean tighter binding, high ones weaker binding. Take B1: binding was put at a Kd of 3.7 µM.
